Results reported in EP4748858A1 (Nanjing Probio Biotech Co., Ltd., dated 2026).

Key:
[1] = biological target: T1, recombinant protein of the human CD7 extracellular domain, CD7-His (human, UniProt P09564 26-180); assay: indirect ELISA, plate coated with 1 µg/ml human CD7, anti-human IgG Fc-HRP
T1 construct: range 25-645; also called human CD7-His protein; recombinant human CD7; not shown: His protein tag
T1 sequence (looked up): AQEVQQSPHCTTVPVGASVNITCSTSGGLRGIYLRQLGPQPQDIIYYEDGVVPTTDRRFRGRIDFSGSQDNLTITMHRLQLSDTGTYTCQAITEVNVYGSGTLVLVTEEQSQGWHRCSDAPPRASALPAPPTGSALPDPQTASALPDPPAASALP

[2] = biological target: T2, mouse CD7 (ACROBiosystems, CD7-M52H3) (mouse, UniProt P50283 24-150); assay: indirect ELISA, plate coated with 1 µg/ml mouse CD7
T2 construct: Bought recombinant protein; also called Mouse CD7 protein
T2 sequence (looked up): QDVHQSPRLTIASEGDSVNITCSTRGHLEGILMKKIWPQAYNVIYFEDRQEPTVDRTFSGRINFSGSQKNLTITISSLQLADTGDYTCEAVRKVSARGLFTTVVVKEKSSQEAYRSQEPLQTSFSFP

[3] = biological target: T1, recombinant protein of the human CD7 …; assay: SPR Biacore T200, antibody captured via Fc, human CD7 as analyte
[4] = biological target: T3, human CD7 expressed on cells (human, UniProt P09564 26-240); assay: cell-based or functional assay
T3 sequence (looked up): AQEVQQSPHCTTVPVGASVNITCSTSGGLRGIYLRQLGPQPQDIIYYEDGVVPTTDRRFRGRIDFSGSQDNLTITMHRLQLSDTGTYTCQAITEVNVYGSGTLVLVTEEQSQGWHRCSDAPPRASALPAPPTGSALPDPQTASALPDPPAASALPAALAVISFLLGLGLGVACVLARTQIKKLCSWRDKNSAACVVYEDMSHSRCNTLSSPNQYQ

[5] = biological target: T3, human CD7 expressed on cells; assay: cell-based or functional assay; remark: listed apart in the source

B1: AHP19483 (Fc fusion)
chain: AVQLVDSGGGLVQAGGSLTLSCAASGRTFSRYTMGWFRQAPGKERELVASISWSGGSTDYADSVKDRFTISRDNTKNTVYLQMNGLKPEDTAVYYCNTDRMPYRPVVGGILSWEPYWGQGTQVTVTP
notes: Alpaca VHH expressed as fusion to human IgG1 Fc; not shown: human IgG1 Fc of expression vector pcDNA3.4-Fc (HuIgG1)
[1]
  EC50: 0.231 nM
[2]
  binding result: no binding (tested: 8 µg/ml (about 100 nM))

B2: AHP19487 (Fc fusion)
chain: DVQLVESGGGLVQPGGSLRLSCAFPGSAFSFYFMGWYRQAPGKQRELVGDITPGGTANYADSVKGRFTISRDSAKNTVYLQMNSLKPEDTAVYYCNADRRVTIRPDGYWGQGTQVTVSS
notes: as for B1
[1]
  EC50: 0.173 nM
[2]
  binding result: no binding (tested: 8 µg/ml (about 100 nM))

B3: AHP19511 (Fc fusion)
chain: AVQLVESGGGLVQPGGSLRLSCAASGFTFSNAVIGWYRQAPGKQRELVASITPGGRTTYPDSVKGRFIISRDNAKNTVYLEMNSLKLEDTAVYYCNDFRGLGGYWGQGTQVTVSS
notes: as for B1
[1]
  EC50: 0.166 nM
[2]
  binding result: no binding (tested: 8 µg/ml (about 100 nM))

B4: AHP19484-VHH3 (Fc fusion)
chain: QVQLVESGGGLVKPGGSLRLSCAASGSSFHFAFMGWYRQAPGKQRELVADISPGNSTNYADPVKGRFTISRDNAKNSLYLQMNSLRAEDTAVYFCRDLRSWGAWGQGTLVTVSS
notes: Humanized VHH of AHP19484 expressed as fusion to human IgG1 Fc; not shown: human IgG1 Fc of expression vector pcDNA3.4-Fc (Human IgG1)
[3]
  Kd: 0.118 nM
  koff: 5.19e-05 s⁻¹
  kon: 440000 M⁻¹ s⁻¹

B5: AHP19509-VHH1 CAR (other)
chain: EVQLVESGGGLVQPGGSLRLSCAASGGTFNRYTMGWFRQAPGKEREFVSAISWSGGSTDYADSVKGRFTISRDNSKNTLYLQMNSLRAEDTAVYYCDTDRMPYRPVAAGILSWEANWGQGTLVTVSSGGGSGGGSGGGSGGGSEVQLVESGGGLVQPGGSLRLSCAASGGTFNRYTMGWFRQAPGKEREFVSAISWSGGSTDYADSVKGRFTISRDNSKNTLYLQMNSLRAEDTAVYYCDTDRMPYRPVAAGILSWEANWGQGTLVTVSSAAADYKDDDDKIEVMYPPPYLDNEKSNGTIIHVKGKHLCPSPLFPGPSKPFWVLVVVGGVLACYSLLVTVAFIIFWVRSKRSRLLHSDYMNMTPRRPGPTRKHYQPYAPPRDFAAYRSRVKFSRSADAPAYQQGQNQLYNELNLGRREEYDVLDKRRGRDPEMGGKPRRKNPQEGLYNELQKDKMAEAYSEIGMKGERRRGKGHDGLYQGLSTATKDTYDALHMQALPPR
[4]
  % Cytotoxicity of CAR-T cells against CCRF-CEM/Luc, E/T = 1 : 1: 74.8%
  % Cytotoxicity of CAR-T cells against CCRF-CEM/Luc, E/T = 5 : 1: 60.2%
  % Cytotoxicity of CAR-T cells against CCRF-CEM/Luc, E/T = 20 : 1: 84.6%
[5]
  % Cytotoxicity of CAR-T cells against Jurkat/Luc, E/T = 1 : 1: 62.4%
  % Cytotoxicity of CAR-T cells against Jurkat/Luc, E/T = 5 : 1: 93%
  % Cytotoxicity of CAR-T cells against Jurkat/Luc, E/T = 20 : 1: 99.6%

B6: AHP19495 (Fc fusion)
chain: AVQLVESGGGLVQPGGSLRLSCAASGFTASRDVMSWYRQPPGKERELVASIFSAGSKETYAESVKGRFTISIDNVKNTVNLQMDNLKPEDTAVYYCHRWPGYWGQGTQVTVSS
notes: as for B1
[1]
  EC50: 0.158 nM
[2]
  binding result: no binding (tested: 8 µg/ml (about 100 nM))

B7: VHH6 CAR (other)
chain: DVQLQESGGGLVQAGGSLRLSCAVSGYPYSSYCMGWFRQAPGKEREGVAAIDSDGRTRYADSVKGRFTISQDNAKNTLYLQMNRMKPEDTAMYYCAARFGPMGCVDLSTLSFGHWGQGTQVTVSITGGGGSGGGGSGGGGSGGGGSDVQLQESGGGLVQAGGSLRLSCAVSGYPYSSYCMGWFRQAPGKEREGVAAIDSDGRTRYADSVKGRFTISQDNAKNTLYLQMNRMKPEDTAMYYCAARFGPMGCVDLSTLSFGHWGQGTQVTVSITAAADYKDDDDKIEVMYPPPYLDNEKSNGTIIHVKGKHLCPSPLFPGPSKPFWVLVVVGGVLACYSLLVTVAFIIFWVRSKRSRLLHSDYMNMTPRRPGPTRKHYQPYAPPRDFAAYRSRVKFSRSADAPAYQQGQNQLYNELNLGRREEYDVLDKRRGRDPEMGGKPRRKNPQEGLYNELQKDKMAEAYSEIGMKGERRRGKGHDGLYQGLSTATKDTYDALHMQALPPR
[4]
  % Cytotoxicity of CAR-T cells against CCRF-CEM/Luc, E/T = 1 : 1: 74.5%
  % Cytotoxicity of CAR-T cells against CCRF-CEM/Luc, E/T = 5 : 1: 51.2%
  % Cytotoxicity of CAR-T cells against CCRF-CEM/Luc, E/T = 20 : 1: 71.1%
[5]
  % Cytotoxicity of CAR-T cells against Jurkat/Luc, E/T = 1 : 1: 43.4%
  % Cytotoxicity of CAR-T cells against Jurkat/Luc, E/T = 5 : 1: 67.2%
  % Cytotoxicity of CAR-T cells against Jurkat/Luc, E/T = 20 : 1: 93.6%

B8: AHP19508 (Fc fusion)
chain: AVQLVDSGGGLVQPGGSLRLSCAASGDFARLYEMAWYRQTPGQQREVVAQITVGGSTKYADSVKGRFTISRDSAKNTVYLQMNSLRPEDTAVYYCHAWPALWGQGTQVTVSS
notes: as for B1
[1]
  EC50: 0.2 nM
[2]
  binding result: no binding (tested: 8 µg/ml (about 100 nM))

B9: AHP19485-VHH1 (Fc fusion)
chain: EVQLVESGGGLVQPGGSLRLSCAASERIFSIHAMGWYRQAPGKQRELVSSITIGGSTHYADSVKGRFTISRDNSKNTLYLQMNSLRAEDTAVYYCNSMLLAGTVGGSWGQGTLVTVSS
notes: Humanized VHH of AHP19485 expressed as fusion to human IgG1 Fc; not shown: human IgG1 Fc of expression vector pcDNA3.4-Fc (Human IgG1)
[3]
  Kd: 0.131 nM
  koff: 3.18e-05 s⁻¹
  kon: 243000 M⁻¹ s⁻¹

B10: AHP19485-VHH1 CAR (other)
chain: EVQLVESGGGLVQPGGSLRLSCAASERIFSIHAMGWYRQAPGKQRELVSSITIGGSTHYADSVKGRFTISRDNSKNTLYLQMNSLRAEDTAVYYCNSMLLAGTVGGSWGQGTLVTVSSGGGSGGGSGGGSGGGSEVQLVESGGGLVQPGGSLRLSCAASERIFSIHAMGWYRQAPGKQRELVSSITIGGSTHYADSVKGRFTISRDNSKNTLYLQMNSLRAEDTAVYYCNSMLLAGTVGGSWGQGTLVTVSSAAADYKDDDDKIEVMYPPPYLDNEKSNGTIIHVKGKHLCPSPLFPGPSKPFWVLVVVGGVLACYSLLVTVAFIIFWVRSKRSRLLHSDYMNMTPRRPGPTRKHYQPYAPPRDFAAYRSRVKFSRSADAPAYQQGQNQLYNELNLGRREEYDVLDKRRGRDPEMGGKPRRKNPQEGLYNELQKDKMAEAYSEIGMKGERRRGKGHDGLYQGLSTATKDTYDALHMQALPPR
[4]
  % Cytotoxicity of CAR-T cells against CCRF-CEM/Luc, E/T = 1 : 1: 57.4%
  % Cytotoxicity of CAR-T cells against CCRF-CEM/Luc, E/T = 5 : 1: 61.2%
  % Cytotoxicity of CAR-T cells against CCRF-CEM/Luc, E/T = 20 : 1: 78.2%
[5]
  % Cytotoxicity of CAR-T cells against Jurkat/Luc, E/T = 1 : 1: 29.7%
  % Cytotoxicity of CAR-T cells against Jurkat/Luc, E/T = 5 : 1: 86%
  % Cytotoxicity of CAR-T cells against Jurkat/Luc, E/T = 20 : 1: 99.4%

B11: AHP19494 (Fc fusion)
chain: QVKLEESGGGLVQAGGSLRLSCAAPGRTLSASIKAWFRQAPGKDREFAAAIRWSGDSTYYADSVKGRFTISRDNAKNTVDLQMNSLKPEDTAVYYCNAGGLLSNGYQPGSSWGQGTQVTVSS
notes: as for B1
[1]
  EC50: 1.47 nM
[2]
  binding result: no binding (tested: 8 µg/ml (about 100 nM))

B12: AHP19484-VHH3 CAR (other)
chain: QVQLVESGGGLVKPGGSLRLSCAASGSSFHFAFMGWYRQAPGKQRELVADISPGNSTNYADPVKGRFTISRDNAKNSLYLQMNSLRAEDTAVYFCRDLRSWGAWGQGTLVTVSSGGGSGGGSGGGSGGGSQVQLVESGGGLVKPGGSLRLSCAASGSSFHFAFMGWYRQAPGKQRELVADISPGNSTNYADPVKGRFTISRDNAKNSLYLQMNSLRAEDTAVYFCRDLRSWGAWGQGTLVTVSSAAADYKDDDDKIEVMYPPPYLDNEKSNGTIIHVKGKHLCPSPLFPGPSKPFWVLVVVGGVLACYSLLVTVAFIIFWVRSKRSRLLHSDYMNMTPRRPGPTRKHYQPYAPPRDFAAYRSRVKFSRSADAPAYQQGQNQLYNELNLGRREEYDVLDKRRGRDPEMGGKPRRKNPQEGLYNELQKDKMAEAYSEIGMKGERRRGKGHDGLYQGLSTATKDTYDALHMQALPPR
[4]
  % Cytotoxicity of CAR-T cells against CCRF-CEM/Luc, E/T = 1 : 1: 69.7%
  % Cytotoxicity of CAR-T cells against CCRF-CEM/Luc, E/T = 5 : 1: 64.9%
  % Cytotoxicity of CAR-T cells against CCRF-CEM/Luc, E/T = 20 : 1: 94.1%
[5]
  % Cytotoxicity of CAR-T cells against Jurkat/Luc, E/T = 1 : 1: 60.5%
  % Cytotoxicity of CAR-T cells against Jurkat/Luc, E/T = 5 : 1: 94.5%
  % Cytotoxicity of CAR-T cells against Jurkat/Luc, E/T = 20 : 1: 100%

B13: AHP19481 (Fc fusion)
chain: AVQLVDSGGGLVQPGGSLRLSCAASGFTFSGFAMSWYRQAPGKERELVATISRFGESSNYEDSVKGRFTISRDNAKDTGYLQMNSLKPEDTAVYYCNAEAPAGSLWYGNNYWGQGTQVTVSS
notes: as for B1
[1]
  EC50: 0.238 nM
[2]
  binding result: no binding (tested: 8 µg/ml (about 100 nM))

B14: AHP19490 (Fc fusion)
chain: QVQLVESGGGLVQPGGSLRLSCAASGFTFSGFDMSWYRQAPGKERELVATISRFGGSSNYEDSVKGRFTISRDNVKDTVYLQMNSLKPEDTAVYYCYALAPAGSLWHGDNYWGQGTQVTVSS
notes: as for B1
[1]
  EC50: 0.268 nM
[2]
  binding result: no binding (tested: 8 µg/ml (about 100 nM))

B15: AHP19472 (Fc fusion)
chain: AVQLVDSGGGLVQPGGSLGLSCAASGFTFSGFDMSWYRQAPGKERMLVATITRFGGSSNYEDSVKGRFTISRDNARDTVYLQMNSLKPEDTAMYYCHAEAPAGSLWFGNNYWGQGTQVTVSS
notes: Alpaca VHH expressed as fusion to human IgG1 Fc in HEK293-6E; not shown: human IgG1 Fc of expression vector pcDNA3.4-Fc (HuIgG1)
[1]
  EC50: 0.179 nM
[2]
  binding result: no binding (tested: 8 µg/ml (about 100 nM))

B16: AHP19509-VHH1 (Fc fusion)
chain: EVQLVESGGGLVQPGGSLRLSCAASGGTFNRYTMGWFRQAPGKEREFVSAISWSGGSTDYADSVKGRFTISRDNSKNTLYLQMNSLRAEDTAVYYCDTDRMPYRPVAAGILSWEANWGQGTLVTVSS
notes: Humanized VHH of AHP19509 expressed as fusion to human IgG1 Fc; not shown: human IgG1 Fc of expression vector pcDNA3.4-Fc (Human IgG1)
[3]
  Kd: 0.1 nM
  koff: 3.04e-05 s⁻¹
  kon: 304000 M⁻¹ s⁻¹
